Source: patent US20180258163A1 (Chugai, published 2018)
Substitutions are numbered along the chain they refer to. Names and notes keep the numbering of the source.

T1: human IL-8 (human, UniProt P10145 23-99, limits assumed)
T1 construct: also called hIL-8
T1 sequence: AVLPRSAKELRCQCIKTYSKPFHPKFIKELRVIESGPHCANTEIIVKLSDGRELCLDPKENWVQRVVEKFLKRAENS

T2: soluble human FcγRIIb (human, UniProt P31994 43-217, limits assumed)
T2 construct: soluble His-tagged form; also called hFcγRIIb
T2 sequence (looked up): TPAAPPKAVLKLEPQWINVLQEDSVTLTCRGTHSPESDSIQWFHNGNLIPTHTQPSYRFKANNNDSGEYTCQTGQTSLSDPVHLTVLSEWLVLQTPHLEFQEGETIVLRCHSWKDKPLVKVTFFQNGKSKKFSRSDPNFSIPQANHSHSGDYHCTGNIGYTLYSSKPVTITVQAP

B1: Ab2 (antibody, human IgG1, kappa, V domains shown)
VH: QSVEESGGRLVTPGTPLTLTCTVSGFSLSSFNMDWVRQAPGEGLEWIGAVSTGGSAYYAKWAKGRFTISKTSTAVDLKITSPTTEDTATYFCARVDSSGWGYFDLWGQGTLVTVSS
VL: AIEMTQTPFSVSAAVGGTVTINCQASENIYSSLAWYQQKPGQPPKLLIYYASNLASGVSSRFKGSGSGTDFTLTISDLECADAATYYCQSYYFISSTDFNAFGGGTEVVVKR
B2: Ab3 (antibody, human IgG1, kappa, V domains shown)
VH: QSLEESGGDLVKPGASLTLTCTTSVFDLSSYYWICWVRQAPGKGLEWIACVYATSGSTDYATWAKGRLTISKASSTTVTLQMTSLTAADTATYFCARGGIYGGDGFNLWGPGTLVTVSS
VL: AFELTQTPASVEAAVGGTVTINCQASESISNWLAWYQQKPGQPPKLLIYRASTLTSGVPSRFKGSGSGTEFTLTISDLECADAATYYCQSYDPSIIDGFAFGGGTEVVVKR
B3: H1000/L0442 (antibody, human IgG1, kappa, name in Kabat numbering, V domains shown)
VH: QVQLVESGGGLVQPGGSLRLSCAASGFTFSEYYLSWVRQAPGKGLEWVGLIRNKDNHHTPEYSASVKGRFTISRDDSKNSLYLTMSDLKTEDTAVYYCARENHRYDVELAYWGQGTLVTVSS
VL: DIQMTQSPSSLSASVGDRVTITCRASEIIYEYLAWYQQKPGKAPKLLIYKAKTHADGVPSRFSGSGSGTDFTFTISSLQPEDIATYYCKHHFGFPRTFGQGTKVEIKR
B4: H1050/L0395 (antibody, human IgG1, kappa, name in Kabat numbering, V domains shown)
VH: B3 VH with H57Y
VL: B3 VL with E31S
B5: Ab1H-P1471m/Ab1L (antibody, human IgG1, kappa, name in EU numbering)
heavy: not shown
light: DIQMTQSPSSVSASVGDRVTITCQASESIYSGLAWYQQKPGQPPKLLIYDHSTLASGVPSRFSGSGSGTEYALTISSLQPEDFATYYCQHADYAHHSDNVFGGGTKVEIKRTVAAPSVFIFPPSDEQLKSGTASVVCLLNNFYPREAKVQWKVDNALQSGNSQESVTEQDSKDSTYSLSSTLTLSKADYEKHKVYACEVTHQGLSSPVTKSFNRGEC
notes: copies: 2 + 2
B6: Ab1H-P1469m/Ab1L (antibody, human IgG1, kappa, name in EU numbering)
heavy: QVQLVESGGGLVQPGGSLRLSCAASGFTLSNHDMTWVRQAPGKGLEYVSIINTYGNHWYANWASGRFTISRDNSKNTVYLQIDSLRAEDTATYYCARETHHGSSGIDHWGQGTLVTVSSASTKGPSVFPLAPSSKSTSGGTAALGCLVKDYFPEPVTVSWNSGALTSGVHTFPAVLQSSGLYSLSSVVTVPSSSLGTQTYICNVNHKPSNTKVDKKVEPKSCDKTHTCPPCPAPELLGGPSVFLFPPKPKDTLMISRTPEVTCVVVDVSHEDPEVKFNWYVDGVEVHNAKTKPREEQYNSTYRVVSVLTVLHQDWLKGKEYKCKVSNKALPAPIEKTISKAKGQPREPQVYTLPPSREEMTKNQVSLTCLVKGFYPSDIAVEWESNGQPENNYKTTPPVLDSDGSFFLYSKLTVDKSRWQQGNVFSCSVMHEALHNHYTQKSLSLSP
light: B5 light
notes: copies: 2 + 2
B7: Ab1H-P1398m/Ab1L (antibody, human IgG1, kappa, name in EU numbering)
heavy: not shown
light: B5 light
notes: copies: 2 + 2
B8: Ab1H-P1482m/Ab1L (antibody, human IgG1, kappa, name in EU numbering)
heavy: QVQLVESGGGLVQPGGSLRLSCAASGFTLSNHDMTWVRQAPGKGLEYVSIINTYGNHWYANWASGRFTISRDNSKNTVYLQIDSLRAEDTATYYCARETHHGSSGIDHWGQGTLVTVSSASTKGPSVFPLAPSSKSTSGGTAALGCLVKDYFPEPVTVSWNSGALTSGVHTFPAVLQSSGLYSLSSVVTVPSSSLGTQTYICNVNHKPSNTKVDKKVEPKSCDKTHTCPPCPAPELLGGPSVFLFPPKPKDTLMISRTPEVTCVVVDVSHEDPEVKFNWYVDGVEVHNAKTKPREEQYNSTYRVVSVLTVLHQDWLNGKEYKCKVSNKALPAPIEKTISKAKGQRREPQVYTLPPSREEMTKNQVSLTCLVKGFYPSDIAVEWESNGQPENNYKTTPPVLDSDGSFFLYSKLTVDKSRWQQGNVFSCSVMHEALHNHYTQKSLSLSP
light: B5 light
B9: Ab1H-P1515m/Ab1L (antibody, human IgG1, kappa, name in EU numbering)
heavy: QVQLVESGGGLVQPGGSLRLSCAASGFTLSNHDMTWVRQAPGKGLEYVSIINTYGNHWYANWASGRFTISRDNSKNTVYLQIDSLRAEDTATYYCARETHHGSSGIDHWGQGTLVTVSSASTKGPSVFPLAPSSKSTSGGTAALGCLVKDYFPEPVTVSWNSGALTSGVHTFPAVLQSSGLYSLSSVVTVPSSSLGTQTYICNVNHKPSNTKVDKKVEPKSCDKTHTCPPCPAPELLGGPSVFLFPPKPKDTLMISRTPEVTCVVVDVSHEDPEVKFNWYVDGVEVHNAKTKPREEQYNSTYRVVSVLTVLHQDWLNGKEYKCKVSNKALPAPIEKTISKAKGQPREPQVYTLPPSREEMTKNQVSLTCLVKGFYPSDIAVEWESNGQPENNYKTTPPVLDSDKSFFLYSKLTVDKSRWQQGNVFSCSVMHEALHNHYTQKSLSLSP
light: B5 light
notes: copies: 2 + 2
B10: Ab1H-P1514m/Ab1L (antibody, human IgG1, kappa, name in EU numbering)
heavy: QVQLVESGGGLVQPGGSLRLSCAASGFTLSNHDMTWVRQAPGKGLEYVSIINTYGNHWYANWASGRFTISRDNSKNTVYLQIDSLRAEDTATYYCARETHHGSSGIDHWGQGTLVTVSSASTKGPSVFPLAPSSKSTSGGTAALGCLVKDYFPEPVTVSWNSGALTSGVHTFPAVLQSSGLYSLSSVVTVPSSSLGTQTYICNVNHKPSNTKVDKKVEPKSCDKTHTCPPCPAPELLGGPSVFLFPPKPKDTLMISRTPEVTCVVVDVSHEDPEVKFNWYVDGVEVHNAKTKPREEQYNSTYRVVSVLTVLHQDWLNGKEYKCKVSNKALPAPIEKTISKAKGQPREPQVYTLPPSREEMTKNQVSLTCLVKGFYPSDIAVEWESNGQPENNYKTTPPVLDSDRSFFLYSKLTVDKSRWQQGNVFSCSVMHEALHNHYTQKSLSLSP
light: B5 light
notes: copies: 2 + 2
B11: Ab1H-P1468m/Ab1L (antibody, human IgG1, kappa, name in EU numbering)
heavy: not shown
light: B5 light
notes: copies: 2 + 2
B12: Ab1H-P1466m/Ab1L (antibody, human IgG1, kappa, name in EU numbering)
heavy: not shown
light: B5 light
notes: copies: 2 + 2
B13: Ab1H-P1470m/Ab1L (antibody, human IgG1, kappa, name in EU numbering)
heavy: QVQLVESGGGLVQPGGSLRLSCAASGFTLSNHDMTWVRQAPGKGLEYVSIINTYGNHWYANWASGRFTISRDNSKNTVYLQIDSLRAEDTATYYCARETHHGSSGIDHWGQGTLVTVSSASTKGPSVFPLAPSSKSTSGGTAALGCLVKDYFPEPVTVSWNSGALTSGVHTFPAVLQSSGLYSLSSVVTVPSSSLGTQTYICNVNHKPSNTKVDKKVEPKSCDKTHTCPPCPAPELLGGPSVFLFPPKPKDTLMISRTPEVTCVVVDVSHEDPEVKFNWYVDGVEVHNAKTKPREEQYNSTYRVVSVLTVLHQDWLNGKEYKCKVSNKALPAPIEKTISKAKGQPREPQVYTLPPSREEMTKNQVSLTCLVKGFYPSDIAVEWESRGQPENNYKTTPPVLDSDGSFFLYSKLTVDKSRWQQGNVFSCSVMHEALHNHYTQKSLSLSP
light: B5 light
notes: copies: 2 + 2
B14: Ab1H-P1394m/Ab1L (antibody, human IgG1, kappa)
heavy: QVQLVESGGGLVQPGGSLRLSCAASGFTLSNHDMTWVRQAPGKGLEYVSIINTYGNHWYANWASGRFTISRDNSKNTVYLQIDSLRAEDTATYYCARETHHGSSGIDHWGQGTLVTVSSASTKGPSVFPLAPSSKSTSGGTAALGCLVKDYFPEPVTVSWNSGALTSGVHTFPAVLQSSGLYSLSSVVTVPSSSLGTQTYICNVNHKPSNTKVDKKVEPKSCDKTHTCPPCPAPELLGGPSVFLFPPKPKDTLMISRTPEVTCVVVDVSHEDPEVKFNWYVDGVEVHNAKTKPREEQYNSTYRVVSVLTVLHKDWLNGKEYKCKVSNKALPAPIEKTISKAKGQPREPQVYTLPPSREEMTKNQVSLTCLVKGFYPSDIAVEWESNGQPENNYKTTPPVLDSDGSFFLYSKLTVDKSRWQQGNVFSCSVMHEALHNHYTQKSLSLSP
light: B5 light
notes: heavy chain = Ab1H with Q311K (EU); copies: 2 + 2
B15: Ab1H-P1513m/Ab1L (antibody, human IgG1, kappa, name in EU numbering)
heavy: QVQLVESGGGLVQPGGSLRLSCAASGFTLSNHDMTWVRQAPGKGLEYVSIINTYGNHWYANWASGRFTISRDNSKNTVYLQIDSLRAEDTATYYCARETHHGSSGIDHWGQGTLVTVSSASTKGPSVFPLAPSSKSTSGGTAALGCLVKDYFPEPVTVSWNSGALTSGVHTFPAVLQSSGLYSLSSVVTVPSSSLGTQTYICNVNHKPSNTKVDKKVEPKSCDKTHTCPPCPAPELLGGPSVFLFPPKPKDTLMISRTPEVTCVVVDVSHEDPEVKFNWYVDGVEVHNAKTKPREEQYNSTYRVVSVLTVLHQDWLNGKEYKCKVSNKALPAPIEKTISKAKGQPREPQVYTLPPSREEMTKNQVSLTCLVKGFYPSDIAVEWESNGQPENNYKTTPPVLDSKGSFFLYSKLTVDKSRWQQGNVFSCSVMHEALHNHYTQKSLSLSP
light: B5 light
notes: copies: 2 + 2
B16: Ab1H-P1512m/Ab1L (antibody, human IgG1, kappa, name in EU numbering)
heavy: not shown
light: B5 light
notes: copies: 2 + 2
B17: Ab1H-P1483m/Ab1L (antibody, human IgG1, kappa, name in EU numbering)
heavy: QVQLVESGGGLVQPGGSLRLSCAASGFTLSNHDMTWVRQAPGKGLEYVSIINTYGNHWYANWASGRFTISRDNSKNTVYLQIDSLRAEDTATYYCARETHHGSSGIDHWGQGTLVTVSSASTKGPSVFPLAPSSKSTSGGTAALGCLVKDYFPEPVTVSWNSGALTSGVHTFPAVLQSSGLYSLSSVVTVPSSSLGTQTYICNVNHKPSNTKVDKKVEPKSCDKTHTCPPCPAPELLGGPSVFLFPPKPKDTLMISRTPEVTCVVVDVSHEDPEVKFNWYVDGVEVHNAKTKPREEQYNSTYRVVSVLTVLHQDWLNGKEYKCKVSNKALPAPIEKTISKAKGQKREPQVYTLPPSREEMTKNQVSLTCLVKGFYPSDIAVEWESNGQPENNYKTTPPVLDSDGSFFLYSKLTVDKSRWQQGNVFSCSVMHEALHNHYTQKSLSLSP
light: B5 light
B18: Ab1H-P1653m/Ab1L (antibody, human IgG1, kappa, name in EU numbering)
heavy: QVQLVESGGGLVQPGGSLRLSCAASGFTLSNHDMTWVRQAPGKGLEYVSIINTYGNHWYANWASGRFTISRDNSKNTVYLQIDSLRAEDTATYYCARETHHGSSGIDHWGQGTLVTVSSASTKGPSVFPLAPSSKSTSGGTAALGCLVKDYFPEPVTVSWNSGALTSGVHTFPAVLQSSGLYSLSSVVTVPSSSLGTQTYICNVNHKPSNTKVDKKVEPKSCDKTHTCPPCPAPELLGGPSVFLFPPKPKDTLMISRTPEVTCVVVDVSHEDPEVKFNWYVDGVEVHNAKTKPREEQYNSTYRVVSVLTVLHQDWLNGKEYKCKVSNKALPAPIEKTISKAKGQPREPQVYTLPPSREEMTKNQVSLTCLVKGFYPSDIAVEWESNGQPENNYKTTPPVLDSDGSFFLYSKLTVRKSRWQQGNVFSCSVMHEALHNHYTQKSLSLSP
light: B5 light
notes: copies: 2 + 2
B19: Ab1H-P1480m/Ab1L (antibody, human IgG1, kappa, name in EU numbering)
heavy: not shown
light: B5 light
B20: Ab1H-P1481m/Ab1L (antibody, human IgG1, kappa, name in EU numbering)
heavy: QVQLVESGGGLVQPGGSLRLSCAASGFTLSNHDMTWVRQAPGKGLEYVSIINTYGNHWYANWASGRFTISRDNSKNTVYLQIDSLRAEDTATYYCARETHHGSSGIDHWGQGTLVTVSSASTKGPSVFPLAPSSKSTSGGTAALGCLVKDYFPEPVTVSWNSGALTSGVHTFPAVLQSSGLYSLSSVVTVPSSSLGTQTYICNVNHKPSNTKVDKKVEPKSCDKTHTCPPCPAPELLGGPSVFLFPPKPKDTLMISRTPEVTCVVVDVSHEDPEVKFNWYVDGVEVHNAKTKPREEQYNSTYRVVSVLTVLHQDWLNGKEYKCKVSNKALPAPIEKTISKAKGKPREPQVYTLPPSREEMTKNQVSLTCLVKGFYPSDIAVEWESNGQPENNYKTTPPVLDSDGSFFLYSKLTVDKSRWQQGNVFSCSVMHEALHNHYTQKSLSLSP
light: B5 light
B21: Ab1H045/Ab1L (antibody, human IgG1, kappa, name in Kabat numbering)
heavy: not shown
light: B5 light
notes: copies: 2 + 2

Target: T3, human IgE (human, UniProt P01854-1 1-428)
T3 construct: whole IgE; also called hIgE
Test: SPR, IgE on chip, Ab analyte, pH 5.8, 37C
Experimental: (§1) Affinities of Ab2 and Ab3 for human IgE at pH 7.4 and pH 5.8 were evaluated as follows. The binding activity (dissociation constant KD (M)) of anti-hIgE antibodies toward hIgE were evaluated using BIACORE T200 (GE Healthcare). Measurements were carried out using the following two buffers as the running buffers: (1) 1.2 mM CaCl₂/0.05% tween 20, 20 mM ACES, 150 mM NaCl, pH 7.4; and (2) 1.2 mM CaCl₂/0.05% tween 20, 20 mM ACES, 150 mM NaCl, pH 5.8.
(§2) Then, to regenerate the sensor chip, 10 mM glycine-HCl at pH 1.5 was injected. All measurements were carried out at 37° C. Association rate constants ka (1/Ms) and dissociation rate constants kd (1/s) were calculated by analyzing the measurement results by curve-fitting using the BIACORE T200 Evaluation Software (GE Healthcare), and dissociation constants KD (M) were calculated based on those values.

T3 sequence (P01854 other isoform, or with tags, fused parts or gaps): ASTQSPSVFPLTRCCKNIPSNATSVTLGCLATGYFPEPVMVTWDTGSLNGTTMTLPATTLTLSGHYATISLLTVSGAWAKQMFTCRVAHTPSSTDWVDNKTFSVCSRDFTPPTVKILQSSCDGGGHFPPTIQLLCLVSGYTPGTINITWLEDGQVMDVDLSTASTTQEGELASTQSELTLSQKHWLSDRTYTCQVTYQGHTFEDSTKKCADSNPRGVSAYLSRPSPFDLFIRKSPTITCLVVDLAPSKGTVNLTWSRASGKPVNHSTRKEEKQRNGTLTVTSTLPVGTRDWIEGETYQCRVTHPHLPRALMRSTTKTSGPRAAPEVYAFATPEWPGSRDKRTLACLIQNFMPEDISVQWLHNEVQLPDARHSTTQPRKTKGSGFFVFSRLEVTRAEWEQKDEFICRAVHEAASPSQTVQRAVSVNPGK

| Binder | Kd [nM] | koff [s⁻¹] | kon [M⁻¹ s⁻¹] |
| --- | --- | --- | --- |
| B1 | 97 | 0.053 | 550000 |
| B2 | 230 | 0.033 | 140000 |

Target: T1, human IL-8
Test: SPR pH 5.8 37C
Experimental: The following two running buffers were used, and measurements were carried out at the respective temperatures: (1) 0.05% tween20, 40 mM ACES, 150 mM NaCl, pH 7.4, 40° C.: and (2) 0.05% tween20, 40 mM ACES, 150 mM NaCl, pH 5.8, 37° C.
An appropriate amount of Protein A/G (PIERCE) was immobilized onto the Sensor chip CM4 (GE Healthcare) by the amine coupling method and the antibodies of interest were captured. Next, a diluted human IL-8 solution or a running buffer (used as a reference solution) was injected to allow interaction of the antibodies captured onto the sensor chip with human IL-8. For the running buffer, either one of the above-mentioned solutions was used, and the respective buffers were also used to dilute human IL-8. To regenerate the sensor chip, 25 mM NaOH and 10 mM glycine-HCl (pH 1.5) were used. KD (M) of each antibody for human IL-8 was calculated based on the association rate constant kon (1/Ms) and dissociation rate constant koff (1/s) which are kinetic parameters calculated from sensorgrams obtained by the measurements. The BIACORE T200 Evaluation Software (GE Healthcare) was used to calculate each parameter.

| Binder | Kd [nM] |
| --- | --- |
| B3 | 71000 |
| B4 | 7700 |

Target: T2, soluble human FcγRIIb
Test: SPR, Ab-IgE complex over captured hFcγRIIb, pH 7.4, 25C
Experimental: (§3) Regarding the produced Fc region variant-containing antibodies, binding assays between soluble human FcγRIIb and antigen-antibody complexes were performed using BIACORE T200 (GE Healthcare). Soluble human FcγRIIb (NCBI accession NM_004001.3) was produced in the form of a His-tagged molecule by a method known in the art. An appropriate amount of an anti-His antibody was fixed onto Sensor chip CM5 (GE Healthcare) by the amine coupling method using a His capture kit (GE Healthcare) to capture human FcγRIIb. Next, an antibody-antigen complex and a running buffer (as a reference solution) were injected, and interaction was allowed to take place with the human FcγRIIb captured onto the sensor chip. 20 mM N-(2-Acetamido)-2-aminoethanesulfonic acid, 150 mM NaCl, 1.2 mM CaCl₂, and 0.05% (w/v) Tween 20 at pH 7.4 was used as the running buffer, and the respective buffer was also used to dilute the soluble human FcγRIIb. To regenerate the sensor chip, 10 mM glycine-HCl at pH 1.5 was used. All measurements were carried out at 25° C. Analyses were performed based on binding (RU) calculated from sensorgrams obtained by the measurements, and relative values when the binding amount of Ab1H/Ab1L (original Ab1) was defined as 1.00 are shown. To calculate the parameters, the BIACORE T100 Evaluation Software (GE Healthcare) was used.

| Binder | BIACORE fold (relative binding, original Ab1=1.00) [fold] |
| --- | --- |
| B5 | 1.19 |
| B6 | 1.13 |
| B7 | 1.23 |
| B8 | 1.46 |
| B9 | 1.19 |
| B10 | 1.2 |
| B11 | 1.13 |
| B12 | 1.22 |
| B13 | 1.19 |
| B14 | 1.18 |
| B15 | 1.21 |
| B16 | 1.24 |
| B17 | 1.02 |
| B18 | 0.79 |
| B19 | 1.03 |
| B20 | 1.08 |

Target: T3, human IgE
Test: SPR, IgE on chip, Ab analyte, pH 7.4, 37C
Experimental: as §1, §2

| Binder | Kd [nM] | koff [s⁻¹] | kon [M⁻¹ s⁻¹] |
| --- | --- | --- | --- |
| B1 | 1.5 | 0.0045 | 2.9e+06 |
| B2 | 4.9 | 0.0079 | 1.6e+06 |

Target: T2, soluble human FcγRIIb
Test: SPR, Ab-IgE complex over captured hFcγRIIb, pH 7.4, 25C
Remark: another data set of the same source
Experimental: as §3

| Binder | BIACORE fold (relative binding, original Ab1=1.00) [fold] |
| --- | --- |
| B21 | 0.76 |
